Results taken from patent US20240287484.

Legend:
Conditions in all cases: qPCR; 3 mM MgCl2, 37 C
[1] = test system: T1, MG153-39 RT (uncultivated organism (metagenomic))
T1 sequence: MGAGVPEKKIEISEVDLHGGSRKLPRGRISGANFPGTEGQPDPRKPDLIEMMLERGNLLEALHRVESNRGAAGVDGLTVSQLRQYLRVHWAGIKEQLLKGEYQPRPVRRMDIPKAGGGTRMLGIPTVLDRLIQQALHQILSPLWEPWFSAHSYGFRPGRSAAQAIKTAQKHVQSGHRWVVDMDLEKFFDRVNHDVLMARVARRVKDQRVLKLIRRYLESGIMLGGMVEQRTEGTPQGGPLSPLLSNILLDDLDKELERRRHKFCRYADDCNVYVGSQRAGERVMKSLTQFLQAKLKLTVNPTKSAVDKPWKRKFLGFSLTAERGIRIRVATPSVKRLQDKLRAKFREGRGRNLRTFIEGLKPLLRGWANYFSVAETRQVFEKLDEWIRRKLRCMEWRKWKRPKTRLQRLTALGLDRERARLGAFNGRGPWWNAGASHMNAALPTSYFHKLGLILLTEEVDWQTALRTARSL

[2] = test system: T2, MG153-43 RT (uncultivated organism (metagenomic))
T2 sequence: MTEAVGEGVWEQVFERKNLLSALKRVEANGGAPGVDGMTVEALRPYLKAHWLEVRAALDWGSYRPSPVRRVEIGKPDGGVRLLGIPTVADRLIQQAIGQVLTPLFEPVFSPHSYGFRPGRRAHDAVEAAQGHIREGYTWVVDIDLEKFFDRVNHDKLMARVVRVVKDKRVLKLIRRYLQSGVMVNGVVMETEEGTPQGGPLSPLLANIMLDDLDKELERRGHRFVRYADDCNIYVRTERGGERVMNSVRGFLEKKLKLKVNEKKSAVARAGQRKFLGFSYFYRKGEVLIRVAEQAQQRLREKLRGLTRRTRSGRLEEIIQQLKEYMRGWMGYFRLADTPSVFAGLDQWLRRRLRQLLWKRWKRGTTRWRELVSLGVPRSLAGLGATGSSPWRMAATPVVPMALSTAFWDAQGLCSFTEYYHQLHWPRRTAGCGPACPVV

[3] = test system: T3, MG153-50 RT (uncultivated organism (metagenomic))
T3 sequence: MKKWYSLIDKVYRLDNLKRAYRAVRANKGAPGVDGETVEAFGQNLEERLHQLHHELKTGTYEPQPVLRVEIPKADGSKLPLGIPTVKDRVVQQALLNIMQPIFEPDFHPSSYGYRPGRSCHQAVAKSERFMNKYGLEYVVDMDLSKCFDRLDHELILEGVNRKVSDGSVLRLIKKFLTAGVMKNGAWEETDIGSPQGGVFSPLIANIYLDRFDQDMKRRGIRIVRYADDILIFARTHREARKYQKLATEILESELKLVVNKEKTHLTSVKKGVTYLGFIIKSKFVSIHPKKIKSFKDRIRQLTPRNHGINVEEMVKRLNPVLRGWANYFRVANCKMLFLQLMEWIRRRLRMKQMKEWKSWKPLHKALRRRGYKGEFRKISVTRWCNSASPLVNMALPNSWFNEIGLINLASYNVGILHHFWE

[4] = test system: T4, MG153-55 RT (uncultivated organism (metagenomic))
T4 sequence: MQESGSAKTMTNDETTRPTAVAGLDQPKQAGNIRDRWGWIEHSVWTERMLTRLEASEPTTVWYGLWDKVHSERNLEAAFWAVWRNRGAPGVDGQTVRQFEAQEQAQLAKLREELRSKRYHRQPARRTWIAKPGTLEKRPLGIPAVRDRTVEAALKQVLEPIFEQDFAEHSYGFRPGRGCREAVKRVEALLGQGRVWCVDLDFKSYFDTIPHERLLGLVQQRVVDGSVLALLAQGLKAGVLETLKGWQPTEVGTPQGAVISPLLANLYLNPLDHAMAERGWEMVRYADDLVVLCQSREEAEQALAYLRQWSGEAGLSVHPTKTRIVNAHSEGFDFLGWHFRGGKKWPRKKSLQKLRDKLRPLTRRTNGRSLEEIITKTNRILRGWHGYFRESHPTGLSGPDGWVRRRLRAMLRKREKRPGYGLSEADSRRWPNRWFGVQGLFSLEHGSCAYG

[5] = test system: T5, MG153-7 RT (uncultivated organism (metagenomic))
T5 sequence: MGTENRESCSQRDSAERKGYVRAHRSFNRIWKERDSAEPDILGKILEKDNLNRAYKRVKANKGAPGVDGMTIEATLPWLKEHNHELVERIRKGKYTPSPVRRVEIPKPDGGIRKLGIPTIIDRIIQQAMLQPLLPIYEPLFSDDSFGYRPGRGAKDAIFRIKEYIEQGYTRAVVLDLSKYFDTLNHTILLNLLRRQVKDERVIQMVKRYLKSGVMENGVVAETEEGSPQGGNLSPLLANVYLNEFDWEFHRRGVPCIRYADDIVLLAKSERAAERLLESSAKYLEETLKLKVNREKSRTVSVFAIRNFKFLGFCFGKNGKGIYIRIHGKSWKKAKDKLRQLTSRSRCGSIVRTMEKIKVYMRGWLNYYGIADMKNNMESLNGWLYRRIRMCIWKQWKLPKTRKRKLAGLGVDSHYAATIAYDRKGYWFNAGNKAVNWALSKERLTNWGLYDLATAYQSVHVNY

[6] = test system: T6, MG153-8 RT (uncultivated organism (metagenomic))
T6 sequence: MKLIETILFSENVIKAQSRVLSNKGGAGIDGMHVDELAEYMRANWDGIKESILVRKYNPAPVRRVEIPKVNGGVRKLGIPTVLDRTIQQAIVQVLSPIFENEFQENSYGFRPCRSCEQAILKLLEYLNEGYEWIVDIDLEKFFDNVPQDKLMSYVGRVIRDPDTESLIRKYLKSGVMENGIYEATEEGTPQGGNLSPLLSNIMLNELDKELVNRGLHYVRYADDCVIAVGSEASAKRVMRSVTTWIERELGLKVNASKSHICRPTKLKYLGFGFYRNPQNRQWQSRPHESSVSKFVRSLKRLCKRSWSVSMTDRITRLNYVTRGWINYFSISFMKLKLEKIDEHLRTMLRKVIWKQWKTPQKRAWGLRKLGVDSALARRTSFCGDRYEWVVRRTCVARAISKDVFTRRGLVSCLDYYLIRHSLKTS

Measured: activity (fold over background)

200 nt RNA template annealed to DNA primer
> 10: [1] | [2] | [3] | [4] | [5] | [6]
